Measured values: patent US20260061032A1 (GI INNOVATION, published 2026)

T1: hCD73 (human, UniProt P21589 27-549, limits assumed)
T1 sequence: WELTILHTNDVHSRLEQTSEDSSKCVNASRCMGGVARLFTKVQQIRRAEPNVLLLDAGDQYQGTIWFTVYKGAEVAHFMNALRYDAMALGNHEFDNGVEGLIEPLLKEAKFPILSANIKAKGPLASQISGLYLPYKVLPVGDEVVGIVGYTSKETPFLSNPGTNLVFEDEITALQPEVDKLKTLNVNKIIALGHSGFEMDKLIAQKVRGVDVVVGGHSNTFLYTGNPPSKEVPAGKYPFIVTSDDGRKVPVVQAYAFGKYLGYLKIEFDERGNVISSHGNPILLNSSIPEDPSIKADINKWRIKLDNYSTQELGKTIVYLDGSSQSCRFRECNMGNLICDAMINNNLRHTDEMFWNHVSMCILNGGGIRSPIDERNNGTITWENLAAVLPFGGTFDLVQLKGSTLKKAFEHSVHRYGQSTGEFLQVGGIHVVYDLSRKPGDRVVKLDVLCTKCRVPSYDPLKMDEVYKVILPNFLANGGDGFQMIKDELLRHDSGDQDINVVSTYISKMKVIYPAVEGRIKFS

T2: membrane-bound human CD73 (human, UniProt P21589 27-549)
T2 sequence: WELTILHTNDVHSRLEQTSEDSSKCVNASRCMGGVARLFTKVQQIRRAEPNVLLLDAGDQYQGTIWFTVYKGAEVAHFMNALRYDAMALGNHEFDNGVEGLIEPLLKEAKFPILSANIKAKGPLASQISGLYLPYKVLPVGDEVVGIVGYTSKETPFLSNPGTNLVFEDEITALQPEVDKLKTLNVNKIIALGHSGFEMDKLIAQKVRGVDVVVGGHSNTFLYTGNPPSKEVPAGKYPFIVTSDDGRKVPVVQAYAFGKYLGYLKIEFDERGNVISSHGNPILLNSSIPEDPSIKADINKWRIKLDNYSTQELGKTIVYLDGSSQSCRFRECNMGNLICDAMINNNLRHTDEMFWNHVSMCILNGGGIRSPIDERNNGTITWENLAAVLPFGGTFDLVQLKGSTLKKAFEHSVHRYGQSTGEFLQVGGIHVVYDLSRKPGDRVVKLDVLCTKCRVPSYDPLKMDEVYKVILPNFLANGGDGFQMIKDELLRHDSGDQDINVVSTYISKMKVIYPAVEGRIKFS

T3: mCD73 (UniProt Q61503 29-551, limits assumed)
T3 construct: Species told only by the prefix 'm'
T3 sequence (looked up): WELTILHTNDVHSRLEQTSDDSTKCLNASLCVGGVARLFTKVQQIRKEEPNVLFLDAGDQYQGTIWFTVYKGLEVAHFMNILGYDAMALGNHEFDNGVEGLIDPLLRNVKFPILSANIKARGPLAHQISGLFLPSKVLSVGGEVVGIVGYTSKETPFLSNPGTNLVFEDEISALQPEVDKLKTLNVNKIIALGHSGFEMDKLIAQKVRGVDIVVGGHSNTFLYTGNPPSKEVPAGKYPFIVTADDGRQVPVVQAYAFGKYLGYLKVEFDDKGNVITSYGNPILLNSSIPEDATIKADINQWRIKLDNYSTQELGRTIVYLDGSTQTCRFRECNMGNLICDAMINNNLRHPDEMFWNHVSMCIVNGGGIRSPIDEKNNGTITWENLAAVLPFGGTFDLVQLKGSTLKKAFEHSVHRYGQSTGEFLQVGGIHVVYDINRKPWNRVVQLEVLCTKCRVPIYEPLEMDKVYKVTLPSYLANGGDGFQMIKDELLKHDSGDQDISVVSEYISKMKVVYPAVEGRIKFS

B1: GI-108B1 (Anti-CD73 Ab-hIgG4 Fc-hIL2v3 fusion protein dimer) (antibody)
heavy: QVQLVQSGAEVKKPGSSVKVSCKFSGGSFTSYSFSWVRQAPGQGLEWMGRIIPVLTTTDYAQKFRDRVTITADESTSTAYMELSGLRSEDTAVYYCASGLKKNWYFDLWGRGALITVSSASTKGPSVFPLAPCSRSTSESTAALGCLVKDYFPEPVTVSWNSGALTSGVHTFPAVLQSSGLYSLSSVVTVPSSSLGTKTYTCNVDHKPSNTKVDKRVESKYGPPCPPCPAPEAAGGPSVFLFPPKPKDQLMISRTPEVTCVVVDVSQEDPEVQFNWYVDGVEVHNAKTKPREEQFNSTYRVVSVLTVLHQDWLNGKEYKCKVSNKGLPSSIEKTISKAKGQPREPQVYTLPPSQEEMTKNQVSLTCLVKGFYPSDIAVEWESNGQPENNYKTTPPVLDSDGSFFLYSRLTVDKSRWQEGNVFSCSVLHEALHNHYTQKSLSLSLGGGGGSGGGGSAPTSSSTKKTQLQLEHLLLDLQMILNGINNYKNPKLTAMLTAKFYMPKKATELKHLQCLERELKPLEEVLNLAQSKNFHLRPRDLISNINVIVLELKGSETTFMCEYADETATIVEFLNRWITFCQSIISTLT
light: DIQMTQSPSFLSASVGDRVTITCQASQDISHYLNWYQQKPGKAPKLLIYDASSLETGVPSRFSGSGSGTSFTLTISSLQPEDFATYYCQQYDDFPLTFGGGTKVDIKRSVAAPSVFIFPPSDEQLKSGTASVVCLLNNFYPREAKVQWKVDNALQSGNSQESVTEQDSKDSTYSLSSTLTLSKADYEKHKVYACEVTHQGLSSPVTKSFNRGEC
notes: IgG4 anti-CD73 antibody with the IL-2 variant fused to the C-terminus of each heavy chain; expressed in CHO cells, purified as a dimer
B2: GI-108A1 (AHF10240) (Anti-CD73 sdAb-hIgG4 Fc-hIL2v3 fusion protein dimer) (Fc fusion)
chain: EVQLVESGGGVVQTGGSLRLSCAASGRTFTHLAMGWFRQAPGKEREFVAAISNSGAGTQFADSVKGRFTISRDNAKNTVYLQMNSLKPEDTAVYYCAADWGTRDSPSKLNAVYDYWGRGTQVTVSSGGGGSAESKYGPPCPPCPAPEAAGGPSVFLFPPKPKDQLMISRTPEVTCVVVDVSQEDPEVQFNWYVDGVEVHNAKTKPREEQFNSTYRVVSVLTVLHQDWLNGKEYKCKVSNKGLPSSIEKTISKAKGQPREPQVYTLPPSQEEMTKNQVSLTCLVKGFYPSDIAVEWESNGQPENNYKTTPPVLDSDGSFFLYSRLTVDKSRWQEGNVFSCSVLHEALHNHYTQKSLSLSLGGGGGSGGGGSGGGGSAPTSSSTKKTQLQLEHLLLDLQMILNGINNYKNPKLTAMLTAKFYMPKKATELKHLQCLERELKPLEEVLNLAQSKNFHLRPRDLISNINVIVLELKGSETTFMCEYADETATIVEFLNRWITFCQSIISTLT
notes: Homodimer through hinge cysteines
B3: GI-108A1 (AHP04167) (Anti-CD73 sdAb-hIgG4 Fc-hIL2v3 fusion protein dimer) (Fc fusion)
chain: EVQLVESGGGLVQAGGSLRLSCVVSGRTFSNYHMGWFRQAPGKEREFVAVIGRSGGPTYYADSVKGRFTISRDNAKNTVYLQMNSLKPEDTAVYYCAGDWRNSDSPSKLKPVYDYWGQGTQVTVSSGGGGSAESKYGPPCPPCPAPEAAGGPSVFLFPPKPKDQLMISRTPEVTCVVVDVSQEDPEVQFNWYVDGVEVHNAKTKPREEQFNSTYRVVSVLTVLHQDWLNGKEYKCKVSNKGLPSSIEKTISKAKGQPREPQVYTLPPSQEEMTKNQVSLTCLVKGFYPSDIAVEWESNGQPENNYKTTPPVLDSDGSFFLYSRLTVDKSRWQEGNVFSCSVLHEALHNHYTQKSLSLSLGGGGGSGGGGSGGGGSAPTSSSTKKTQLQLEHLLLDLQMILNGINNYKNPKLTAMLTAKFYMPKKATELKHLQCLERELKPLEEVLNLAQSKNFHLRPRDLISNINVIVLELKGSETTFMCEYADETATIVEFLNRWITFCQSIISTLT
notes: as for B2

Key:
hCD73 [1] = target: T1, hCD73; assay: cell-based or functional assay
[2] = target: T2, membrane-bound human CD73; assay: cell-based or functional assay
hCD73 [3] = target: T1, hCD73; assay: SPR, Biacore T200; binder captured on CM5 chip by human antibody capture kit, CD73 as analyte
Experimental: (§1) To quantitatively analyze the binding affinities to CD73 and IL-2 receptors of […] and GI-108B1, in which the anti-CD73 antibody that specifically binds to CD73 was linked to the IL-2 variant, and Aldesleukin (trade name: PROLEUKIN®, Novartis), the binding affinities were measured using SPR (surface plasmon resonance). Using a BIACORE™ T200 instrument (Cytiva), the binding affinities of GI-108A1 (AHF10240), GI-108A1 (AHP04167) and GI-108B1 to hCD73, cyCD73, mCD73, hIL-2Rα, hIL-2Rβ, and hIL-2Rβγ were analyzed. Oleclumab (Astrazeneca), produced on order from Ybiologics, Inc., was used as a control.
(§2) Specifically, to analyze the binding affinities to hCD73, cyCD73, and mCD73, each of GI-108A1 (AHF10240), GI-108A1 (AHP04167), GI-108B1, and Oleclumab was diluted in HBS-EP+ buffer (Cytiva, USA) and reversibly immobilized on Sensor Chip CM5 (Cytiva, USA) using a human antibody capture kit (Cytiva, USA). CD73 was diluted in HBS-EP+ buffer and then analyzed for association and dissociation at a flow rate of 30 μL/min for 5 minutes each.

cyCD73 = target: T4, cyCD73; assay: as above
T4 construct: Species told only by the prefix 'cy'
Experimental: as §1, §2

mCD73 = target: T3, mCD73; assay: as above
Experimental: as §1, §2

| Binder | IC50, inhibition of soluble CD73 enzyme activity (AMP-Glo assay, recombinant human CD73) (hCD73 [1]) | IC50, inhibition of membrane-bound CD73 enzyme activity on MDA-MB-231 cells (adenosine assay) [2] | Kd (hCD73 [3]) | Kd (cyCD73) | binding result (mCD73) | Kd (mCD73) |
| --- | --- | --- | --- | --- | --- | --- |
| B1 | 0.126 nM | 3.37 nM | 0.0894 nM | 0.113 nM | no binding |  |
| B2 | 0.06 nM | 2.75 nM | 0.0502 nM | 0.0841 nM |  | 2.62 nM |
| B3 | 0.102 nM | 5.58 nM | 0.088 nM | 0.0708 nM |  | 3.45 nM |
